Results published in patent US20250281608A1.

Target: C1q
Assay: C1q binding assay, format not stated

- EC50: 0.9 mg/L
Substance: rituximab (antibody)
